In data set [1] the target is T1, RPAcoreΔP (human, UniProt P27694;P15927;P35244 438-616;35-270;1-121). Nature of the data set: BLI. A general note: In BLI a coated tip is dipped into the sample, and binding shifts an interference pattern.
Data set [2] has as its target RPAcoreΔP,W (minimal trimerization core, domains C, D, E) (human, UniProt P27694;P15927;P35244 438-616;35-174;1-121). Nature of the data set: BLI.
Data set [3] deals with T1, RPAcoreΔP. The data set is described as follows: BLI. This is another data set of the same source.
Data set [4] has as its target RPAcore;PolαCD (catalytic domain of DNA polymerase alpha) (human;human, UniProt P27694;P15927;P35244;P09884 438-616;1-270;1-121;335-1257, |). The data set is described as follows: cryo-EM.

Read-outs that look alike come from different tables or passages of the source.

T1 sequence (P27694 438-616, stated change not applied, chain 1 of 3): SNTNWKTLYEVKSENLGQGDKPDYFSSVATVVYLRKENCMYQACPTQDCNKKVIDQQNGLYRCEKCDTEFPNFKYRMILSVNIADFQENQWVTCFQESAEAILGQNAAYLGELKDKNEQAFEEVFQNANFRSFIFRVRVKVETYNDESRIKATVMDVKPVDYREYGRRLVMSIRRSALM
T1 sequence (P15927 35-270, stated change not applied, chain 2 of 3): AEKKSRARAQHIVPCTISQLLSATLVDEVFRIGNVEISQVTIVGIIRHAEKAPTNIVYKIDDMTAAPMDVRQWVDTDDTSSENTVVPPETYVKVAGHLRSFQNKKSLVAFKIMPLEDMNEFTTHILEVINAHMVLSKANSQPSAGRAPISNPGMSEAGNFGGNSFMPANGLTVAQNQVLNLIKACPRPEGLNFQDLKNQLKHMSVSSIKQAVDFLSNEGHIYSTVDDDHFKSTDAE
T1 sequence (P35244 whole entry, stated change not applied, chain 3 of 3): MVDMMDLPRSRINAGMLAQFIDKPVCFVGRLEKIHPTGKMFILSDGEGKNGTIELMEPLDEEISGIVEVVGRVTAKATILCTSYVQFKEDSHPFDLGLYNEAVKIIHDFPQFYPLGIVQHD
Sequence of RPAcore;PolαCD (catalytic domain of DNA polymerase alpha) (P27694 438-616, chain 1 of 4): as the sequence (P27694 438-616, stated change not applied, chain 1 of 3) above
Sequence of RPAcore;PolαCD (catalytic domain of DNA polymerase alpha) (P15927 whole entry, chain 2 of 4, the tested form may be a part): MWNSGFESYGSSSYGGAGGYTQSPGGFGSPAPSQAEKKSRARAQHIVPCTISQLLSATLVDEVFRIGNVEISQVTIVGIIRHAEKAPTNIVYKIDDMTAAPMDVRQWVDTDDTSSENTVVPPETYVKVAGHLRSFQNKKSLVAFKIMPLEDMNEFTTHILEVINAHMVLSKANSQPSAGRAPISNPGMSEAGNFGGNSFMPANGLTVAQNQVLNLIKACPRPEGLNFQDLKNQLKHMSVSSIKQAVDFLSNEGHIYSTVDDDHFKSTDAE
Sequence of RPAcore;PolαCD (catalytic domain of DNA polymerase alpha) (P35244 whole entry, chain 3 of 4, the tested form may be a part): as the sequence (P35244 whole entry, stated change not applied, chain 3 of 3) above
Sequence of RPAcore;PolαCD (catalytic domain of DNA polymerase alpha) (P09884 335-1257, chain 4 of 4): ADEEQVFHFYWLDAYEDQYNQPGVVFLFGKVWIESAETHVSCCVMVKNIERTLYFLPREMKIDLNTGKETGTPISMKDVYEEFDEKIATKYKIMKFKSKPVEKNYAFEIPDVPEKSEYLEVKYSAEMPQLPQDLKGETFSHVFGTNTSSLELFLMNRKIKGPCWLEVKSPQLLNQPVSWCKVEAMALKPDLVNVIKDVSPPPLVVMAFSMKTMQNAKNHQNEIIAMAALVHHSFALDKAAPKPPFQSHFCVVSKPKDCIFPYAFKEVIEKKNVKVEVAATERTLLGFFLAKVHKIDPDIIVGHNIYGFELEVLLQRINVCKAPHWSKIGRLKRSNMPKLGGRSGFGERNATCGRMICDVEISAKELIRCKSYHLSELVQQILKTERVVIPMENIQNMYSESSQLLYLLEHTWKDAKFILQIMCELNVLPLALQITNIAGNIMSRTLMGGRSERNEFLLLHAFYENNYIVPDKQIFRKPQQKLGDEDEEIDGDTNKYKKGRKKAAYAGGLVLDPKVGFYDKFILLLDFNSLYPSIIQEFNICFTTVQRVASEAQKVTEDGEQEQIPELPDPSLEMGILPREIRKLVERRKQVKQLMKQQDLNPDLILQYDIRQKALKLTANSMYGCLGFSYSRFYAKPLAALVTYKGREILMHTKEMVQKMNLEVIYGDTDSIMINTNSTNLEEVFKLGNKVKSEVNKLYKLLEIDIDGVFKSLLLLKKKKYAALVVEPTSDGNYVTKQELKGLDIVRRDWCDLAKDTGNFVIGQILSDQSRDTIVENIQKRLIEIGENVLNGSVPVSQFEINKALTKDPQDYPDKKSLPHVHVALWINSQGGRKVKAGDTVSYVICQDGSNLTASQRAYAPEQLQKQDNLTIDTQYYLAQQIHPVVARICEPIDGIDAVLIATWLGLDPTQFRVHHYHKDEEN
Sequence of RPAcoreΔP,W (minimal trimerization core, domains C, D, E) (P27694 438-616, stated change not applied, chain 1 of 3): as the sequence (P27694 438-616, stated change not applied, chain 1 of 3) above
Sequence of RPAcoreΔP,W (minimal trimerization core, domains C, D, E) (P15927 35-174, stated change not applied, chain 2 of 3): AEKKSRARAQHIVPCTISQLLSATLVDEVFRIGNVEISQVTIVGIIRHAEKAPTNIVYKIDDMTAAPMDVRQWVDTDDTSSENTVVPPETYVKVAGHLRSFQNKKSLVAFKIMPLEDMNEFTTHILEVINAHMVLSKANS
Sequence of RPAcoreΔP,W (minimal trimerization core, domains C, D, E) (P35244 whole entry, stated change not applied, chain 3 of 3): as the sequence (P35244 whole entry, stated change not applied, chain 3 of 3) above

B1: T8:P3 template:primer (mixed)
DNA: AATCTAGTAACATAGTATACATAAGCGCTCCAGGC
RNA: GCCUGGAGCGC
modifications: P3 is a chimeric RNA-DNA primer (RNA/DNA boundary not in the material) with 3'-dideoxycytidine
B1: the Kd in the data set with RPAcoreΔP [1] is 50.3 ± 6.6 nM; in data set [2] it was 90.2 ± 4.5 nM; in the data set with RPAcoreΔP [3] it was 124 ± 15 nM.

B2: T9:P4 template:primer (mixed)
DNA: AATCTAGTAACATAGTATACATAGGCGCTCCAGGC
RNA: GCCUGGAGCGC
modifications: P4 primer contains U (RNA-DNA chimera?) and 3'-dideoxycytidine
With B2, the binding result in data set [4] is on record as “binds”.

What is called Kd is the equilibrium constant for the complex coming apart. Lower therefore signals tighter binding.

Source of the values: paper doi:10.1101/2024.03.11.584335.
